B1: DLC1 (parent)
chain: KRSWEEHVTHWMGQPFNSDDRNTA

Variants of: B1
Assay: protein stability index of a GFP-peptide fusion (GPS, HEK-293T) (PSI 1-6); higher = more stable
Details: c terminus: a fixed tail appended
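Further: lentivirally expressed fusions sorted by FACS into six bins by GFP to DsRed ratio, PSI derived from sequencing read proportions per bin multiplied by bin number.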

Row | Variant | protein stability index
1 | KRSWEEHVTHWMGQPFNSDDWNTA [R21W] | 2.92
2 | KRSWEEHVTHWMGQPFNSDDHNTA [R21H] | 2.47
3 | KRSWEEHVTHWMGQPFNSDDSNTA [R21S] | 2.9
4 | KRSWEEHVTHWMGQPFNSDDCNTA [R21C] | 2.85
5 | KRSWEEHVTHWMGQPFNSDDNNTA [R21N] | 3.91
6 | KRSWEEHVTHWMGQPFNSDDQNTA [R21Q] | 3.07
7 | KRSWEEHVTHWMGQPFNSDDYNTA [R21Y] | 2.55
8 | KRSWEEHVTHWMGQPFNSDDENTA [R21E] | 2.99
9 | KRSWEEHVTHWMGQPFNSDDVNTA [R21V] | 3.31
10 | KRSWEEHVTHWMGQPFNSDDDNTA [R21D] | 2.89
11 | KRSWEEHVTHWMGQPFNSDDINTA [R21I] | 2.61
12 | KRSWEEHVTHWMGQPFNSDDKNTA [R21K] | 3.32
13 | KRSWEEHVTHWMGQPFNSDDGNTA [R21G] | 3.17
14 | KRSWEEHVTHWMGQPFNSDDPNTA [R21P] | 2.6
15 | KRSWEEHVTHWMGQPFNSDDRNCA [T23C] | 3.51
16 | KRSWEEHVTHWMGQPFNSDDRNEA [T23E] | 2.73
17 | KRSWEEHVTHWMGQPFNSDDRNWA [T23W] | 1.79
18 | KRSWEEHVTHWMGQPFNSDDRNKA [T23K] | 2.74
19 | KRSWEEHVTHWMGQPFNSDDRNPA [T23P] | 2.46
20 | KRSWEEHVTHWMGQPFNSDDRNLA [T23L] | 2.08
21 | KRSWEEHVTHWMGQPFNSDDRNGA [T23G] | 2.69
22 | KRSWEEHVTHWMGQPFNSDDRNDA [T23D] | 3.26
23 | KRSWEEHVTHWMGQPFNSDDRNIA [T23I] | 2.35
24 | KRSWEEHVTHWMGQPFNSDDRNRA [T23R] | 2.65

Row | Variant | protein stability index
25 | KRSWEEHVTHWMGQPFNSDDRNMA [T23M] | 1.73
26 | KRSWEEHVTHWMGQPFNSDDRNAA [T23A] | 2.22
27 | KRSWEEHVTHWMGQPFNSDDRNQA [T23Q] | 3.27
28 | KRSWEEHVTHWMGQPFNSDDRNHA [T23H] | 2.23
29 | KRSWEEHVTHWMGQPFNSDDRNFA [T23F] | 2.13
30 | KRSWEEHVTHWMGQPFNSDDRNNA [T23N] | 2.74
31 | KRSWEEHVTHWMGQPFNSDDRNYA [T23Y] | 2.16
32 | KRSWEEHVTHWMGQPFNSDDRNVA [T23V] | 2.13
33 | KRSWEEHVTHWMGQPFNSDDRNSA [T23S] | 2.26
34 | KRSWEEHVTHWMGQPFNSDDRNTI [A24I] | 2.81
35 | KRSWEEHVTHWMGQPFNSDDRNTE [A24E] | 3.59
36 | KRSWEEHVTHWMGQPFNSDDRNTK [A24K] | 3.54
37 | KRSWEEHVTHWMGQPFNSDDRNTP [A24P] | 2.92
38 | KRSWEEHVTHWMGQPFNSDDRNTH [A24H] | 2.9
39 | KRSWEEHVTHWMGQPFNSDDRNTT [A24T] | 2.43
40 | KRSWEEHVTHWMGQPFNSDDRNTG [A24G] | 2.97
41 | KRSWEEHVTHWMGQPFNSDDRNTQ [A24Q] | 3.18
42 | KRSWEEHVTHWMGQPFNSDDRNTS [A24S] | 2.67
43 | KRSWEEHVTHWMGQPFNSDDRNTY [A24Y] | 1.72
44 | KRSWEEHVTHWMGQPFNSDDRNTN [A24N] | 2.23
45 | KRSWEEHVTHWMGQPFNSDDRNTM [A24M] | 2.09
46 | KRSWEEHVTHWMGQPFNSDDRNTR [A24R] | 2.86
47 | KRSWEEHVTHWMGQPFNSDDRNTD [A24D] | 2.82
48 | KRSWEEHVTHWMGQPFNSDDRNTW [A24W] | 2.6

Row | Variant | protein stability index
49 | KRSWEEHVTHWMGQPFNSDDRNTF [A24F] | 2.37
50 | KRSWEEHVTHWMGQPFNSDDRNTL [A24L] | 2.89
51 | KRSWEEHVTHWMGQPFNSDDRNTV [A24V] | 3.28
52 | KRSWEEHVTHWMGQPFNSDDRNTC [A24C] | 2.32
53 | KRSWEEHVTHWMGQPFNSDNRNTA [D20N] | 2.59
54 | KRSWEEHVTHWMGQPFNSDGRNTA [D20G] | 2.43
55 | KRSWEEHVTHWMGQPFNSDPRNTA [D20P] | 2.76
56 | KRSWEEHVTHWMGQPFNSDFRNTA [D20F] | 2.29
57 | KRSWEEHVTHWMGQPFNSDLRNTA [D20L] | 2.48
58 | KRSWEEHVTHWMGQPFNSDQRNTA [D20Q] | 3.05
59 | KRSWEEHVTHWMGQPFNSDERNTA [D20E] | 2.87
60 | KRSWEEHVTHWMGQPFNSDRRNTA [D20R] | 2.66
61 | KRSWEEHVTHWMGQPFNSDARNTA [D20A] | 3.41
62 | KRSWEEHVTHWMGQPFNSDHRNTA [D20H] | 2.48
63 | KRSWEEHVTHWMGQPFNSDIRNTA [D20I] | 2.54
64 | KRSWEEHVTHWMGQPFNSDKRNTA [D20K] | 2.51
65 | KRSWEEHVTHWMGQPFNSDCRNTA [D20C] | 2.19
66 | KRSWEEHVTHWMGQPFNSDSRNTA [D20S] | 1.91
67 | KRSWEEHVTHWMGQPFNSDMRNTA [D20M] | 1.91
68 | KRSWEEHVTHWMGQPFNSDYRNTA [D20Y] | 1.77
69 | KRSWEEHVTHWMGQPFNSDVRNTA [D20V] | 2.02
70 | KRSWEEHVTHWMGQPFNSDWRNTA [D20W] | 1.59
71 | KRSWEEHVTHWMGQPFNSDTRNTA [D20T] | 2.75
72 | KRSWEEHVTHWMGQPFNSYDRNTA [D19Y] | 1.43

Row | Variant | protein stability index
73 | KRSWEEHVTHWMGQPFNSTDRNTA [D19T] | 2.4
74 | KRSWEEHVTHWMGQPFNSVDRNTA [D19V] | 1.97
75 | KRSWEEHVTHWMGQPFNSWDRNTA [D19W] | 2.64
76 | KRSWEEHVTHWMGQPFNSDDRCTA [N22C] | 1.94
77 | KRSWEEHVTHWMGQPFNSDDRRTA [N22R] | 2.53
78 | KRSWEEHVTHWMGQPFNSDDRKTA [N22K] | 3.02
79 | KRSWEEHVTHWMGQPFNSDDRLTA [N22L] | 2.06
80 | KRSWEEHVTHWMGQPFNSDDRMTA [N22M] | 2.28
81 | KRSWEEHVTHWMGQPFNSDDRYTA [N22Y] | 2.09
82 | KRSWEEHVTHWMGQPFNSDDRGTA [N22G] | 2.81
83 | KRSWEEHVTHWMGQPFNSDDRTTA [N22T] | 2.29
84 | KRSWEEHVTHWMGQPFNSDDRHTA [N22H] | 2.04
85 | KRSWEEHVTHWMGQPFNSDDRITA [N22I] | 2.12
86 | KRSWEEHVTHWMGQPFNSDDRETA [N22E] | 2.56
87 | KRSWEEHVTHWMGQPFNSDDRATA [N22A] | 1.81
88 | KRSWEEHVTHWMGQPFNSDDRFTA [N22F] | 2.04
89 | KRSWEEHVTHWMGQPFNSDDRQTA [N22Q] | 2.67
90 | KRSWEEHVTHWMGQPFNSDDRDTA [N22D] | 2.59
91 | KRSWEEHVTHWMGQPFNSDDRVTA [N22V] | 2.49
92 | KRSWEEHVTHWMGQPFNSDDRSTA [N22S] | 2.74
93 | KRSWEEHVTHWMGQPFNSDDRPTA [N22P] | 2.73
94 | KRSWEEHVTHWMGQPFNSDDRWTA [N22W] | 1.7
